# Reference: publication PMC9482650, “Quantitative fragmentomics allow affinity mapping of interactomes” (Nature Communications, 2022)
# T1: NHERF3_4, Q5T2W1
# T1 sequence (Q5T2W1 373-468, limits assumed, looked up): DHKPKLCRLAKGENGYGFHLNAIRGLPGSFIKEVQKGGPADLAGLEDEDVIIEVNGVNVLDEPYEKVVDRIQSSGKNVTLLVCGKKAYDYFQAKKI
# T2: APBA1_2, Q02410
# T2 sequence (Q02410 742-832, limits assumed, looked up): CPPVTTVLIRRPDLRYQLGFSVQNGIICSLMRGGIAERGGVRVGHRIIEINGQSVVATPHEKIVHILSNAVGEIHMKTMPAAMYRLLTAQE
# T3: SNTG2, Q9NY99
# T3 sequence (Q9NY99 68-166, limits assumed, looked up): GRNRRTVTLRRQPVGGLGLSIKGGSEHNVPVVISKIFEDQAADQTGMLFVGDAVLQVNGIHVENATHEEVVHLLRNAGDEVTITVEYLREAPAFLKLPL
# T4: DLG3_3, Q92796
# T4 sequence (Q92796 374-475, limits assumed, looked up): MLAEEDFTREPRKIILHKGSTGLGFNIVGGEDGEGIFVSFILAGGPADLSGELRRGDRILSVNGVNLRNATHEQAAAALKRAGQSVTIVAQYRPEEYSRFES
# T5: LIN7B, Q9HAP6
# T5 sequence (Q9HAP6 88-185, limits assumed, looked up): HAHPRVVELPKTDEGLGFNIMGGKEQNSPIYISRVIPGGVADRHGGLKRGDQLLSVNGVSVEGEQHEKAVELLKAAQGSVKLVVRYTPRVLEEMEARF
# T6: PTPN13_1, Q12923
# T6 sequence (Q12923 1088-1188, limits assumed, looked up): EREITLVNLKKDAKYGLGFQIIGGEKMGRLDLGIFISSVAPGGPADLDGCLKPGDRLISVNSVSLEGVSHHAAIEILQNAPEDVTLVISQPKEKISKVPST
# T7: PDZD2_2, O15018
# T7 sequence (O15018 329-429, limits assumed, looked up): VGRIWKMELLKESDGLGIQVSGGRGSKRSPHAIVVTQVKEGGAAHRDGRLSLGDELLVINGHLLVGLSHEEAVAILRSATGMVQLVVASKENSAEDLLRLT
# T8: MPP2, Q14168
# T8 sequence (Q14168 180-250, limits assumed, looked up): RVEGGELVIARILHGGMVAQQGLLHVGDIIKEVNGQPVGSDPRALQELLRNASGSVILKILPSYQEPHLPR
# T9: MPDZ_12, O75970
# T9 sequence (O75970 1857-1958, limits assumed, looked up): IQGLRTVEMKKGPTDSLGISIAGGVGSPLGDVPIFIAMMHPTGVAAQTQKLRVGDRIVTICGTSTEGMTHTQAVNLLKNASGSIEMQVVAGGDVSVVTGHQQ
# T10: GRIP1_7, Q9Y3R0
# T10 sequence (Q9Y3R0 999-1096, limits assumed, looked up): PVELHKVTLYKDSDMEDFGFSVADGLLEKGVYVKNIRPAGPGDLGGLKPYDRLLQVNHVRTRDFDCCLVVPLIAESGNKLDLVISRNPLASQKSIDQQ
# T11: GRIP1_4, Q9Y3R0
# T11 sequence (Q9Y3R0 467-571, limits assumed, looked up): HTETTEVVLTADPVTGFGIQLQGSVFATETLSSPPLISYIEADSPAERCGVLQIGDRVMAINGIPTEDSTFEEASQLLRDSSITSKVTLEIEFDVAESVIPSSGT
# B1: ARAP3_int, Q8WWN8 (peptide)
# chain: ELIQDTSTSFSTTREW
# B2: ASIC3, Q9UHC3 (peptide)
# chain: HRTCYLVTQL
# B3: EPHA7, Q15375 (peptide)
# chain: LHLHGTGIQV
# B4: MERS-E, K9N5R3 (peptide)
# chain: DSKPPLPPDEWV
# Experiments:
# Test in all cases: holdup assay
# Set-up in all cases: key: below the threshold = too weak to quantify, mostly under pKd 3.1 to 4
# NHERF3_4, Q5T2W1 = target: T1, NHERF3_4, Q5T2W1
# APBA1_2, Q02410 = target: T2, APBA1_2, Q02410
# FRMPD2_1, Q68DX3 = target: FRMPD2_1, Q68DX3
# Chain of FRMPD2_1, Q68DX3 (Q68DX3 770-861): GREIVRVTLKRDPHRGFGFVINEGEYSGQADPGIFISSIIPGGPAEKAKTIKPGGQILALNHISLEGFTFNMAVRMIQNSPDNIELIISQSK
# GRIP2_7, Q9C0E4 = target: GRIP2_7, Q9C0E4
# Chain of GRIP2_7, Q9C0E4 (Q9C0E4 934-1023): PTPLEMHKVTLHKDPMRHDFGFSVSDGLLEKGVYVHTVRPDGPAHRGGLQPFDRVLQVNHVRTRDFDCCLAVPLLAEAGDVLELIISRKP
# SNTG2, Q9NY99 = target: T3, SNTG2, Q9NY99
# MAGI2_6, Q86UL8 = target: MAGI2_6, Q86UL8
# Chain of MAGI2_6, Q86UL8 (Q86UL8 1141-1229): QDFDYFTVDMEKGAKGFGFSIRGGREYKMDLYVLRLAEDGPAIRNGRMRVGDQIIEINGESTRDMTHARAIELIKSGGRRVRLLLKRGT
# LIMK2, P53671 = target: LIMK2, P53671
# Chain of LIMK2, P53671 (P53671 143-248): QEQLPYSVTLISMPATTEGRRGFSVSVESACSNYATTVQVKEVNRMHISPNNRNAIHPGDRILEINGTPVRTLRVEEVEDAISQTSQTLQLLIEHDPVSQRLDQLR
# AHNAK1, Q09666 = target: AHNAK1, Q09666
# Chain of AHNAK1, Q09666 (Q09666 4-100): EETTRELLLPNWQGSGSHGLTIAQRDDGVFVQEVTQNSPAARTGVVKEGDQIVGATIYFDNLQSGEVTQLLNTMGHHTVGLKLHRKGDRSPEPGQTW
# DLG3_3, Q92796 = target: T4, DLG3_3, Q92796
# LIN7B, Q9HAP6 = target: T5, LIN7B, Q9HAP6
# MAGI2_4, Q86UL8 = target: MAGI2_4, Q86UL8
# Chain of MAGI2_4, Q86UL8 (Q86UL8 772-865): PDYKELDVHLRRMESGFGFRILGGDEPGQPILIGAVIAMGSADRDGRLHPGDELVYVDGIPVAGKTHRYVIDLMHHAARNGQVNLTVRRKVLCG
# FRMPD2_2, Q68DX3 = target: FRMPD2_2, Q68DX3
# Chain of FRMPD2_2, Q68DX3 (Q68DX3 944-1038): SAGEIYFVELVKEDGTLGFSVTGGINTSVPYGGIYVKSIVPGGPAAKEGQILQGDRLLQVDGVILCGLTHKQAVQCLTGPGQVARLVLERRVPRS
# NOS1, P29475 = target: NOS1, P29475
# Chain of NOS1, P29475 (P29475 9-101): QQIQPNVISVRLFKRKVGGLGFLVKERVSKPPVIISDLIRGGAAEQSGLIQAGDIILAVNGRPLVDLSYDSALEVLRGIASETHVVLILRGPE
# PTPN13_1, Q12923 = target: T6, PTPN13_1, Q12923
# PDZD2_2, O15018 = target: T7, PDZD2_2, O15018
# GRID2IP_2, A4D2P6 = target: GRID2IP_2, A4D2P6
# Chain of GRID2IP_2, A4D2P6 (A4D2P6 272-370): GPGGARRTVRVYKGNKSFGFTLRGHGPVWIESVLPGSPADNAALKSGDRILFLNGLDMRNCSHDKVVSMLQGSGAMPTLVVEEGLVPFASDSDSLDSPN
# PARD3_3, Q8TEW0 = target: PARD3_3, Q8TEW0
# Chain of PARD3_3, Q8TEW0 (Q8TEW0 582-685): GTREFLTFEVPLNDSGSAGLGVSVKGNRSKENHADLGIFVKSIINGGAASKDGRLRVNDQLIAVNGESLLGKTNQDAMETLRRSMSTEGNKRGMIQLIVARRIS
# MPP2, Q14168 = target: T8, MPP2, Q14168
# MPDZ_12, O75970 = target: T9, MPDZ_12, O75970
# SCRIB_3, Q14160 = target: SCRIB_3, Q14160
# Chain of SCRIB_3, Q14160 (Q14160 999-1103): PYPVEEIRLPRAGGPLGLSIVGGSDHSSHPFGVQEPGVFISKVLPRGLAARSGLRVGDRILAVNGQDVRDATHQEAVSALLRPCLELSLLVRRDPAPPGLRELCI
# LNX1_3, Q8TBB1 = target: LNX1_3, Q8TBB1
# Chain of LNX1_3, Q8TBB1 (Q8TBB1 500-596): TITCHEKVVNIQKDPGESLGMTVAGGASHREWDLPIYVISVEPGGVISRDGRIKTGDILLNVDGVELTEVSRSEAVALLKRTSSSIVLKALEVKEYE
# GRIP1_7, Q9Y3R0 = target: T10, GRIP1_7, Q9Y3R0
# FRMPD4, Q14CM0 = target: FRMPD4, Q14CM0
# Chain of FRMPD4, Q14CM0 (Q14CM0 67-160): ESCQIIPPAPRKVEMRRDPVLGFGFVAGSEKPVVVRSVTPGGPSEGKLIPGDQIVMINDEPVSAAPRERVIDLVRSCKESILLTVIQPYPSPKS
# DLG4_2, P78352 = target: DLG4_2, P78352
# Chain of DLG4_2, P78352 (P78352 155-259): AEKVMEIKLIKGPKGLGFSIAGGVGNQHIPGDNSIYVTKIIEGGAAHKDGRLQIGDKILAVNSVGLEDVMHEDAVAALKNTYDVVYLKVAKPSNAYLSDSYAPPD
# NHERF4_2, Q86UT5 = target: NHERF4_2, Q86UT5
# Chain of NHERF4_2, Q86UT5 (Q86UT5 220-308): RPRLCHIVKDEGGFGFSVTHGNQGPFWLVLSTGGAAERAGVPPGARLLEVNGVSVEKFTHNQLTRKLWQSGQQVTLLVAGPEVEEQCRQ
# GRIP1_4, Q9Y3R0 = target: T11, GRIP1_4, Q9Y3R0
# DLG1_2, Q12959 = target: DLG1_2, Q12959
# Chain of DLG1_2, Q12959 (Q12959 314-412): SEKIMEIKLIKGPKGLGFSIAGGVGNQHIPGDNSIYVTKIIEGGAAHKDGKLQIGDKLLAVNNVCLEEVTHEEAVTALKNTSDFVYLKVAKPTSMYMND
# [1] = plain residues with an end cap or a label only (N-terminal biotin on a linker: gsgsgs; C-terminal amide)
# [2] = plain residues with an end cap or a label only (N-terminal biotin on a linker: ttds)
# [3] = plain residues with an end cap or a label only (N-terminal biotin on a linker: ado-ado)
# [4] = plain residues with an end cap or a label only (N-terminal biotin on a linker: none)
binder,measurement,setting,value
B1,pKd,"NHERF3_4, Q5T2W1; [1]",below the threshold
same,pKd,"APBA1_2, Q02410; [1]",below the threshold
same,pKd,"FRMPD2_1, Q68DX3; [1]",below the threshold
same,pKd,"GRIP2_7, Q9C0E4; [1]",below the threshold
same,pKd,"SNTG2, Q9NY99; [1]",below the threshold
same,pKd,"MAGI2_6, Q86UL8; [1]",below the threshold
same,pKd,"LIMK2, P53671; [1]",below the threshold
same,pKd,"AHNAK1, Q09666; [1]",below the threshold
same,pKd,"DLG3_3, Q92796; [1]",below the threshold
same,pKd,"LIN7B, Q9HAP6; [1]",3.67
same,pKd,"MAGI2_4, Q86UL8; [1]",below the threshold
same,pKd,"FRMPD2_2, Q68DX3; [1]",below the threshold
same,pKd,"NOS1, P29475; [1]",below the threshold
same,pKd,"PTPN13_1, Q12923; [1]",below the threshold
same,pKd,"PDZD2_2, O15018; [1]",below the threshold
same,pKd,"GRID2IP_2, A4D2P6; [1]",3.89
same,pKd,"PARD3_3, Q8TEW0; [1]",below the threshold
same,pKd,"MPP2, Q14168; [1]",below the threshold
same,pKd,"MPDZ_12, O75970; [1]",below the threshold
same,pKd,"SCRIB_3, Q14160; [1]",below the threshold
same,pKd,"LNX1_3, Q8TBB1; [1]",below the threshold
same,pKd,"GRIP1_7, Q9Y3R0; [1]",below the threshold
same,pKd,"FRMPD4, Q14CM0; [1]",below the threshold
same,pKd,"DLG4_2, P78352; [1]",below the threshold
same,pKd,"NHERF4_2, Q86UT5; [1]",below the threshold
same,pKd,"GRIP1_4, Q9Y3R0; [1]",below the threshold
same,pKd,"DLG1_2, Q12959; [1]",below the threshold
B2,pKd,"NHERF3_4, Q5T2W1; [2]",4.69
same,pKd,"APBA1_2, Q02410; [2]",3.78
same,pKd,"FRMPD2_1, Q68DX3; [2]",3.37
same,pKd,"GRIP2_7, Q9C0E4; [2]",3.48
same,pKd,"SNTG2, Q9NY99; [2]",3.75
same,pKd,"MAGI2_6, Q86UL8; [2]",4.11
same,pKd,"LIMK2, P53671; [2]",below the threshold
same,pKd,"AHNAK1, Q09666; [2]",3.33
same,pKd,"DLG3_3, Q92796; [2]",3.49
same,pKd,"LIN7B, Q9HAP6; [2]",3.38
same,pKd,"MAGI2_4, Q86UL8; [2]",3.75
same,pKd,"FRMPD2_2, Q68DX3; [2]",3.76
same,pKd,"NOS1, P29475; [2]",3.75
same,pKd,"PTPN13_1, Q12923; [2]",3.36
same,pKd,"PDZD2_2, O15018; [2]",3.37
same,pKd,"GRID2IP_2, A4D2P6; [2]",4.56
same,pKd,"PARD3_3, Q8TEW0; [2]",3.76
same,pKd,"MPP2, Q14168; [2]",below the threshold
same,pKd,"MPDZ_12, O75970; [2]",3.34
same,pKd,"SCRIB_3, Q14160; [2]",4.85
same,pKd,"LNX1_3, Q8TBB1; [2]",3.55
same,pKd,"GRIP1_7, Q9Y3R0; [2]",below the threshold
same,pKd,"FRMPD4, Q14CM0; [2]",3.77
same,pKd,"DLG4_2, P78352; [2]",3.97
same,pKd,"NHERF4_2, Q86UT5; [2]",3.21
same,pKd,"GRIP1_4, Q9Y3R0; [2]",below the threshold
same,pKd,"DLG1_2, Q12959; [2]",4.12
B3,pKd,"NHERF3_4, Q5T2W1; [3]",3.81
same,pKd,"APBA1_2, Q02410; [3]",4.22
same,pKd,"FRMPD2_1, Q68DX3; [3]",5.03
same,pKd,"GRIP2_7, Q9C0E4; [3]",3.82
same,pKd,"SNTG2, Q9NY99; [3]",below the threshold
same,pKd,"MAGI2_6, Q86UL8; [3]",below the threshold
same,pKd,"LIMK2, P53671; [3]",below the threshold
same,pKd,"AHNAK1, Q09666; [3]",below the threshold
same,pKd,"DLG3_3, Q92796; [3]",3.51
same,pKd,"LIN7B, Q9HAP6; [3]",below the threshold
same,pKd,"MAGI2_4, Q86UL8; [3]",3.83
same,pKd,"FRMPD2_2, Q68DX3; [3]",below the threshold
same,pKd,"NOS1, P29475; [3]",4.24
same,pKd,"PTPN13_1, Q12923; [3]",below the threshold
same,pKd,"PDZD2_2, O15018; [3]",below the threshold
same,pKd,"GRID2IP_2, A4D2P6; [3]",below the threshold
same,pKd,"PARD3_3, Q8TEW0; [3]",3.64
same,pKd,"MPP2, Q14168; [3]",below the threshold
same,pKd,"MPDZ_12, O75970; [3]",3.55
same,pKd,"SCRIB_3, Q14160; [3]",3.53
same,pKd,"LNX1_3, Q8TBB1; [3]",3.48
same,pKd,"GRIP1_7, Q9Y3R0; [3]",3.49
same,pKd,"FRMPD4, Q14CM0; [3]",3.97
same,pKd,"DLG4_2, P78352; [3]",3.75
same,pKd,"NHERF4_2, Q86UT5; [3]",3.54
same,pKd,"GRIP1_4, Q9Y3R0; [3]",below the threshold
same,pKd,"DLG1_2, Q12959; [3]",3.6
B4,pKd,"NHERF3_4, Q5T2W1; [4]",below the threshold
same,pKd,"APBA1_2, Q02410; [4]",4.59
same,pKd,"FRMPD2_1, Q68DX3; [4]",below the threshold
same,pKd,"GRIP2_7, Q9C0E4; [4]",3.86
same,pKd,"SNTG2, Q9NY99; [4]",3.59
same,pKd,"MAGI2_6, Q86UL8; [4]",4.75
same,pKd,"LIMK2, P53671; [4]",below the threshold
same,pKd,"AHNAK1, Q09666; [4]",below the threshold
same,pKd,"DLG3_3, Q92796; [4]",3.58
same,pKd,"LIN7B, Q9HAP6; [4]",below the threshold
same,pKd,"MAGI2_4, Q86UL8; [4]",3.73
same,pKd,"FRMPD2_2, Q68DX3; [4]",below the threshold
same,pKd,"NOS1, P29475; [4]",3.99
same,pKd,"PTPN13_1, Q12923; [4]",below the threshold
same,pKd,"PDZD2_2, O15018; [4]",5.11
same,pKd,"GRID2IP_2, A4D2P6; [4]",3.53
same,pKd,"PARD3_3, Q8TEW0; [4]",4.07
same,pKd,"MPP2, Q14168; [4]",below the threshold
same,pKd,"MPDZ_12, O75970; [4]",below the threshold
same,pKd,"SCRIB_3, Q14160; [4]",3.9
same,pKd,"LNX1_3, Q8TBB1; [4]",below the threshold
same,pKd,"GRIP1_7, Q9Y3R0; [4]",3.88
same,pKd,"FRMPD4, Q14CM0; [4]",4.07
same,pKd,"DLG4_2, P78352; [4]",3.59
same,pKd,"NHERF4_2, Q86UT5; [4]",below the threshold
same,pKd,"GRIP1_4, Q9Y3R0; [4]",below the threshold
same,pKd,"DLG1_2, Q12959; [4]",3.57
